Like-named read-outs stand apart in the source and are kept apart here.
T1: human OX40 expressed on CHO cells (human, UniProt P43489 29-277)
T1 construct: whole, on cells
T1 sequence (looked up): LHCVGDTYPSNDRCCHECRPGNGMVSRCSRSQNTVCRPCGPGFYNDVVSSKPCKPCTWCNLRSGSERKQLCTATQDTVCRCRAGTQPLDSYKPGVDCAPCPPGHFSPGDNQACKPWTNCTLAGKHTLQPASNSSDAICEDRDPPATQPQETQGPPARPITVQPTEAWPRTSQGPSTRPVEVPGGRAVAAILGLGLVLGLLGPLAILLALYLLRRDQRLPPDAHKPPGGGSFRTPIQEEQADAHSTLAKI


Legend:
[1] = molecular target: T1, human OX40 expressed on CHO cells; assay: FACS on CHO cells expressing human OX40 (MFI)
Description: (§1) Anti-OX40/CD137 bi-specific antibodies were analyzed by FACS for their binding properties to human OX40 and/or human CD137 expressed on CHO cells. Briefly, cultured cells were harvested, counted and cell viability was evaluated using the Trypan Blue exclusion method. Viable cells were then adjusted to 2×10⁶ cells per mL in PBS containing 2% BSA. 100 μL of this cell suspension were further aliquoted per well into a V-bottom 96-well plate. […] After incubation for 2 hours at 4° C., cells were centrifuged (3 min, 1000×g), washed with 250 μL/well BSA-containing FACS Stain Buffer, resuspended and incubated for an additional 1 hour at 4° C. with 100 μL/well fluorochrome-conjugated anti-IgG antibody for detection of the bisepecific antibody. Cells were then washed with 250 μL/well BSA-containing FACS Stain Buffer, resuspended in 100 μL/well FACS Stain Buffer, acquired and analyzed using a FACS machine. Binding of the bispecific antibodies to human OX40 or human CD137 expressing CHO cells were evaluated and the mean fluorescence intensity is plotted in histograms or dot plots.

[2] = molecular target: T2, human CD137 expressed on cells (human, UniProt Q07011 24-255); assay: FACS on CHO cells expressing human CD137 (MFI)
T2 construct: whole, on cells; also called 4-1BB; TNFRSF9
T2 sequence (Q07011 24-255): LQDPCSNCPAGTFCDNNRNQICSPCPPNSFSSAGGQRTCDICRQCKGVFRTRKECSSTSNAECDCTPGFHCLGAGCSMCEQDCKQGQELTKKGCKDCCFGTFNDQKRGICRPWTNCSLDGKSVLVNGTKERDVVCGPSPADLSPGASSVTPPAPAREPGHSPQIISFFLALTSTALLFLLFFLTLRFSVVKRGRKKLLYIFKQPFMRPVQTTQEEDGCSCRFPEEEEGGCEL
Description: as §1

[3] = molecular target: T2, human CD137 expressed on cells; assay: FACS on CHO cells expressing human CD137 (MFI); remark: listed apart in the source
Description: as §1, with “Anti-GITR/CD137” for “Anti-OX40/CD137”, “GITR” for “OX40”, “1000× g),” for “1000×g),”

Binder | EC50 (read off the curve) [1] [µg/mL] | EC50 (read off the curve) [2] [µg/mL] | binding result [1] | EC50 (read off the curve) [3] [µg/mL]
Ly759 (bispecific antibody, human IgG1, kappa, Anti-GITR/CD137: TM685-derived heavy chain fused to Ly1630 scFv (VH-VL); TM685 light chain) heavy: QVQLQESGPGLVKPSETLSLTCTVSGFSLTSYNVHWIRQPPGKGLEWIGVIWSGVRTDYNSVLKPRVTISVDTSKNQFSLKLSSVTAADTAVYYCARGTYDDNYHDVMDAWGQGTLVTVSSASTKGPSVFPLAPSSKSTSGGTAALGCLVKDYFPEPVTVSWNSGALTSGVHTFPAVLQSSGLYSLSSVVTVPSSSLGTQTYICNVNHKPSNTKVDKKVEPKSCDKTHTCPPCPAPELLGPSVFLFPPKPKDTLMISRTPEVTCVVVDVSHEDPEVKFNWYVDGVEVHNAKTKPREEQYNSTYRVVSVLTVLHQDWLNGKEYKCKVSNKALPAPIEKTISKAKGQPREPQVYTLPPSREEMTKNQVSLTCLVKGFYPSDIAVEWESNGQPENNYKTTPPVLDSDGSFFLYSKLTVDKSRWQQGNVFSCSVMHEALHNHYTQKSLSLSPGGGGGSGGGGSGGGGSGGGGSQVQLVQSGAEVKKPGASVKVSCKASGYTFAGFEMHWVRQAPGQGLEWMGAIDPKTGGTDYNQKFKDRVTMTRDTSISTAYMELSRLRSDDTAVYYCARDLGYFDVWGQGTLVTVSSGGGGSGGGGSGGGGSGGGGSDIQMTQSPSSLSASVGDRVTITCRASQDIRSNLNWYQQKPGGAVKLLIYYTSRLHSGVPSRFSGSGSGTDYTLTISSLQPEDFATYFCQQSEKLPRTFGGGTKVEIR light: EIVLTQSPATLSLSPGERATLSCRASKSVRTGMHWYQQKPGQAPRLLIYGASNLESGIPARFSGSGSGTDFTLTISSLEPEDFAVYYCQQSWNHFTFGQGTKLEIKRTVAAPSVFIFPPSDEQLKSGTASVVCLLNNFYPREAKVQWKVDNALQSGNSQESVTEQDSKDSTYSLSSTLTLSKADYEKHKVYACEVTHQGLSSPVTKSFNRGEC |  |  |  | ~0.6
Ly756 (bispecific antibody, human IgG1, kappa, Anti-GITR/CD137: Ly1630 heavy chain; Ly1630 light chain fused to TM685 scFv (VL-VH)) heavy: QVQLVQSGAEVKKPGASVKVSCKASGYTFAGFEMHWVRQAPGQGLEWMGAIDPKTGGTDYNQKFKDRVTMTRDTSISTAYMELSRLRSDDTAVYYCARDLGYFDVWGQGTLVTVSSASTKGPSVFPLAPSSKSTSGGTAALGCLVKDYFPEPVTVSWNSGALTSGVHTFPAVLQSSGLYSLSSVVTVPSSSLGTQTYICNVNHKPSNTKVDKKVEPKSCDKTHTCPPCPAPELLGPSVFLFPPKPKDTLMISRTPEVTCVVVDVSHEDPEVKFNWYVDGVEVHNAKTKPREEQYNSTYRVVSVLTVLHQDWLNGKEYKCKVSNKALPAPIEKTISKAKGQPREPQVYTLPPSREEMTKNQVSLTCLVKGFYPSDIAVEWESNGQPENNYKTTPPVLDSDGSFFLYSKLTVDKSRWQQGNVFSCSVMHEALHNHYTQKSLSLSPGK light: DIQMTQSPSSLSASVGDRVTITCRASQDIRSNLNWYQQKPGGAVKLLIYYTSRLHSGVPSRFSGSGSGTDYTLTISSLQPEDFATYFCQQSEKLPRTFGGGTKVEIRRTVAAPSVFIFPPSDEQLKSGTASVVCLLNNFYPREAKVQWKVDNALQSGNSQESVTEQDSKDSTYSLSSTLTLSKADYEKHKVYACEVTHQGLSSPVTKSFNRGECGGGGSGGGGSGGGGSGGGGSEIVLTQSPATLSLSPGERATLSCRASKSVRTGMHWYQQKPGQAPRLLIYGASNLESGIPARFSGSGSGTDFTLTISSLEPEDFAVYYCQQSWNHFTFGQGTKLEIKGGGGSGGGGSGGGGSGGGGSQVQLQESGPGLVKPSETLSLTCTVSGFSLTSYNVHWIRQPPGKGLEWIGVIWSGVRTDYNSVLKPRVTISVDTSKNQFSLKLSSVTAADTAVYYCARGTYDDNYHDVMDAWGQGTLVTVSS |  |  |  | ~0.1
Ly757 (bispecific antibody, human IgG1, kappa, Anti-GITR/CD137: Ly1630 heavy chain; Ly1630 light chain fused to TM685 scFv (VH-VL)) heavy: QVQLVQSGAEVKKPGASVKVSCKASGYTFAGFEMHWVRQAPGQGLEWMGAIDPKTGGTDYNQKFKDRVTMTRDTSISTAYMELSRLRSDDTAVYYCARDLGYFDVWGQGTLVTVSSASTKGPSVFPLAPSSKSTSGGTAALGCLVKDYFPEPVTVSWNSGALTSGVHTFPAVLQSSGLYSLSSVVTVPSSSLGTQTYICNVNHKPSNTKVDKKVEPKSCDKTHTCPPCPAPELLGPSVFLFPPKPKDTLMISRTPEVTCVVVDVSHEDPEVKFNWYVDGVEVHNAKTKPREEQYNSTYRVVSVLTVLHQDWLNGKEYKCKVSNKALPAPIEKTISKAKGQPREPQVYTLPPSREEMTKNQVSLTCLVKGFYPSDIAVEWESNGQPENNYKTTPPVLDSDGSFFLYSKLTVDKSRWQQGNVFSCSVMHEALHNHYTQKSLSLSPGK light: DIQMTQSPSSLSASVGDRVTITCRASQDIRSNLNWYQQKPGGAVKLLIYYTSRLHSGVPSRFSGSGSGTDYTLTISSLQPEDFATYFCQQSEKLPRTFGGGTKVEIRRTVAAPSVFIFPPSDEQLKSGTASVVCLLNNFYPREAKVQWKVDNALQSGNSQESVTEQDSKDSTYSLSSTLTLSKADYEKHKVYACEVTHQGLSSPVTKSFNRGECGGGGSGGGGSGGGGSGGGGSQVQLQESGPGLVKPSETLSLTCTVSGFSLTSYNVHWIRQPPGKGLEWIGVIWSGVRTDYNSVLKPRVTISVDTSKNQFSLKLSSVTAADTAVYYCARGTYDDNYHDVMDAWGQGTLVTVSSGGGGSGGGGSGGGGSGGGGSEIVLTQSPATLSLSPGERATLSCRASKSVRTGMHWYQQKPGQAPRLLIYGASNLESGIPARFSGSGSGTDFTLTISSLEPEDFAVYYCQQSWNHFTFGQGTKLEIK |  |  |  | ~0.2

The remaining lines, values ahead:

EC50 (read off the curve) [1] [µg/mL] | EC50 (read off the curve) [2] [µg/mL] | binding result [1] | EC50 (read off the curve) [3] [µg/mL] | Binder
~0.4 | ~0.3 |  |  | Ly767 (bispecific antibody, human IgG1, kappa, Anti-OX40/CD137: Ly598-derived heavy chain fused to Ly1630 scFv (VH-VL); Ly598 light chain) heavy: EVQLVQSGAEVKKPGASVKVSCKASGYTFTDSYMSWVRQAPGQGLEWIGDMYPDNGDSSYNQKFRERVTITRDTSTSTAYLELSSLRSEDTAVYYCVLAPRWYFSVWGQGTLVTVSSASTKGPSVFPLAPSSKSTSGGTAALGCLVKDYFPEPVTVSWNSGALTSGVHTFPAVLQSSGLYSLSSVVTVPSSSLGTQTYICNVNHKPSNTKVDKKVEPKSCDKTHTCPPCPAPELLGPSVFLFPPKPKDTLMISRTPEVTCVVVDVSHEDPEVKFNWYVDGVEVHNAKTKPREEQYNSTYRVVSVLTVLHQDWLNGKEYKCKVSNKALPAPIEKTISKAKGQPREPQVYTLPPSREEMTKNQVSLTCLVKGFYPSDIAVEWESNGQPENNYKTTPPVLDSDGSFFLYSKLTVDKSRWQQGNVFSCSVMHEALHNHYTQKSLSLSPGGGGGSGGGGSGGGGSGGGGSQVQLVQSGAEVKKPGASVKVSCKASGYTFAGFEMHWVRQAPGQGLEWMGAIDPKTGGTDYNQKFKDRVTMTRDTSISTAYMELSRLRSDDTAVYYCARDLGYFDVWGQGTLVTVSSGGGGSGGGGSGGGGSGGGGSDIQMTQSPSSLSASVGDRVTITCRASQDIRSNLNWYQQKPGGAVKLLIYYTSRLHSGVPSRFSGSGSGTDYTLTISSLQPEDFATYFCQQSEKLPRTFGGGTKVEIR light: not shown
 | ~0.3 | binds |  | Ly768 (bispecific antibody, human IgG1, kappa, Anti-OX40/CD137: Ly598-derived heavy chain) heavy: EVQLVQSGAEVKKPGASVKVSCKASGYTFTDSYMSWVRQAPGQGLEWIGDMYPDNGDSSYNQKFRERVTITRDTSTSTAYLELSSLRSEDTAVYYCVLAPRWYFSVWGQGTLVTVSSASTKGPSVFPLAPSSKSTSGGTAALGCLVKDYFPEPVTVSWNSGALTSGVHTFPAVLQSSGLYSLSSVVTVPSSSLGTQTYICNVNHKPSNTKVDKKVEPKSCDKTHTCPPCPAPELLGPSVFLFPPKPKDTLMISRTPEVTCVVVDVSHEDPEVKFNWYVDGVEVHNAKTKPREEQYNSTYRVVSVLTVLHQDWLNGKEYKCKVSNKALPAPIEKTISKAKGQPREPQVYTLPPSREEMTKNQVSLTCLVKGFYPSDIAVEWESNGQPENNYKTTPPVLDSDGSFFLYSKLTVDKSRWQQGNVFSCSVMHEALHNHYTQKSLSLSPGK light: not shown
 | ~0.6 | binds |  | Ly769 (bispecific antibody, human IgG1, kappa, Anti-OX40/CD137: Ly598-derived heavy chain) heavy: EVQLVQSGAEVKKPGASVKVSCKASGYTFTDSYMSWVRQAPGQGLEWIGDMYPDNGDSSYNQKFRERVTITRDTSTSTAYLELSSLRSEDTAVYYCVLAPRWYFSVWGQGTLVTVSSASTKGPSVFPLAPSSKSTSGGTAALGCLVKDYFPEPVTVSWNSGALTSGVHTFPAVLQSSGLYSLSSVVTVPSSSLGTQTYICNVNHKPSNTKVDKKVEPKSCDKTHTCPPCPAPELLGPSVFLFPPKPKDTLMISRTPEVTCVVVDVSHEDPEVKFNWYVDGVEVHNAKTKPREEQYNSTYRVVSVLTVLHQDWLNGKEYKCKVSNKALPAPIEKTISKAKGQPREPQVYTLPPSREEMTKNQVSLTCLVKGFYPSDIAVEWESNGQPENNYKTTPPVLDSDGSFFLYSKLTVDKSRWQQGNVFSCSVMHEALHNHYTQKSLSLSPGK light: not shown

Source: patent US20230406950A1 (LYVGEN BIOPHARMA, published 2023)
